Measured values as given in the Human Domainome abundance scans (Beltran et al. 2025).
± gives the uncertainty stated by the source.

B1: POU domain, class 3, transcription factor 4, residues 280 to 335; numbered along this chain, P49335 (parent)
chain: KKRTSIEVSVKGVLETHFLKCPKPAAQEISSLADSLQLEKEVVRVWFCNRRQKEKR

Variants of: B1
Assay: abundance fitness (aPCA) (normalised: wild type 0, dead -1); higher = more abundant; growth selection in yeast, the domain comes from the species named
Settings: Homo sapiens

Q: With KKRTSIEVSVKGVLETHFLKCPKPAAQEISSLADSLQLEKEVVRIWFCNRRQKEKR as the variant, how does the abundance fitness read?
A: -0.527 ± 0.34

Q: With KKRTSIEVSVKGVLETHFLKCPKPAAQEISSLADSLQLEKEVVRFWFCNRRQKEKR as the variant, how does the abundance fitness read?
A: -0.517 ± 0.37

Q: With KKRTMIEVSVKGVLETHFLKCPKPAAQEISSLADSLQLEKEVVRVWFCNRRQKEKR as the variant, how does the abundance fitness read?
A: 0.289 ± 0.22

Q: For KKRTCIEVSVKGVLETHFLKCPKPAAQEISSLADSLQLEKEVVRVWFCNRRQKEKR, which abundance fitness is on record?
A: 0.2 ± 0.16

Q: For KKRTVIEVSVKGVLETHFLKCPKPAAQEISSLADSLQLEKEVVRVWFCNRRQKEKR, which abundance fitness is on record?
A: 0.275 ± 0.12

Q: Which abundance fitness does the source give for KTRTSIEVSVKGVLETHFLKCPKPAAQEISSLADSLQLEKEVVRVWFCNRRQKEKR here?
A: -0.277 ± 0.2

Q: With KKRTSIEVSVKGVLETHPLKCPKPAAQEISSLADSLQLEKEVVRVWFCNRRQKEKR as the variant, how does the abundance fitness read?
A: -0.992 ± 0.29

Q: For KKRTSIEVSVKGVLETHCLKCPKPAAQEISSLADSLQLEKEVVRVWFCNRRQKEKR, which abundance fitness is on record?
A: -0.745 ± 0.21

Q: With KKRTSIEVSVKGVLETHFLKCPKPAAQEISSIADSLQLEKEVVRVWFCNRRQKEKR as the variant, how does the abundance fitness read?
A: -0.041 ± 0.48

Q: Which abundance fitness does the source give for KKRTSIEVSVKGVLETHFLKCPKPAAQEISSLADSLQLEKEVVRVWFCNRRQKEKT here?
A: 0.002 ± 0.39

Q: With KKRTSIEVSVKGVLETHFLKCPKPAAQEISSLADSLKLEKEVVRVWFCNRRQKEKR as the variant, how does the abundance fitness read?
A: -0.322 ± 0.48

Q: With KKRTSIEVSVKGVLETHFLKCPKPAAQEISSLADSLRLEKEVVRVWFCNRRQKEKR as the variant, how does the abundance fitness read?
A: -0.21 ± 0.17

Q: Which abundance fitness does the source give for KKRTSVEVSVKGVLETHFLKCPKPAAQEISSLADSLQLEKEVVRVWFCNRRQKEKR here?
A: -0.215 ± 0.093

Q: For KKRTSIEVSVKGVLETHFLKCPKPAAQEISSLTDSLQLEKEVVRVWFCNRRQKEKR, which abundance fitness is on record?
A: -0.704 ± 0.25

Q: Which abundance fitness does the source give for KKRTSIEVSVKGVLETHFLKCPKRAAQEISSLADSLQLEKEVVRVWFCNRRQKEKR here?
A: -0.405 ± 0.22

Q: For KKRTSIEVSVKGVLETHFLKCPKPAAQEISSLADSLQLEKEVVRVWFCNRDQKEKR, which abundance fitness is on record?
A: -0.839 ± 0.34

Q: For KKRTSIEVSVKGVLETHFLKCPKPAAQEISSLADSLQLEKEVVRVWFCNRNQKEKR, which abundance fitness is on record?
A: -0.628 ± 0.37

Q: With KKRTSIEVSVKGVLETHFLKCPKPAAQEISSLADSLQLEKEVVRVWFCNRSQKEKR as the variant, how does the abundance fitness read?
A: -0.549 ± 0.18

Q: For KKRTSIEVSVKGVLETHFLKCPKPAAQEISSLADSLQLEKEVVRVWFDNRRQKEKR, which abundance fitness is on record?
A: 0.023 ± 0.25

Q: For KKRTSIEVSVKGVLETHFLKCPKPAAQEISSLADSLQLEKEVVRVWFENRRQKEKR, which abundance fitness is on record?
A: 0.549 ± 0.19

Q: For KKRTSIEVSVKGVLETHFLKCPKPAAQEISSLADSLQLEKEVVRVWFSNRRQKEKR, which abundance fitness is on record?
A: 0.078 ± 0.13

Q: Which abundance fitness does the source give for KKRTSIEVSVKGVLETHFLKCPKPAAQEISSLADSLQLEKEVVRVWFCNRRYKEKR here?
A: -0.095 ± 0.34

Q: With KKRTSIEVSVKGVLETHFLKCPKPAAQEISSLADSLQLEKEVVRVWFCNRRVKEKR as the variant, how does the abundance fitness read?
A: -0.378 ± 0.14

Q: Which abundance fitness does the source give for KKRTSIEVSVKGVLETHFLKCPKPAAQEISSLADSLQLEKEVVRVWFCNRRIKEKR here?
A: -0.126 ± 0.23

Q: For KKRTSIEVSVKGVLETHFLKCPKPAAQEISSLADSLQLEKEVVRVWFCNRRGKEKR, which abundance fitness is on record?
A: -0.34 ± 0.13

Q: With KKRTSIEVSVKGVLETHFLLCPKPAAQEISSLADSLQLEKEVVRVWFCNRRQKEKR as the variant, how does the abundance fitness read?
A: -0.446 ± 0.12

Q: For KKRTSIEVSVKGVLETHFLACPKPAAQEISSLADSLQLEKEVVRVWFCNRRQKEKR, which abundance fitness is on record?
A: -0.339 ± 0.15

Q: Which abundance fitness does the source give for KKYTSIEVSVKGVLETHFLKCPKPAAQEISSLADSLQLEKEVVRVWFCNRRQKEKR here?
A: 0.069 ± 0.18

Q: For KKQTSIEVSVKGVLETHFLKCPKPAAQEISSLADSLQLEKEVVRVWFCNRRQKEKR, which abundance fitness is on record?
A: -0.354 ± 0.21

Q: With KKMTSIEVSVKGVLETHFLKCPKPAAQEISSLADSLQLEKEVVRVWFCNRRQKEKR as the variant, how does the abundance fitness read?
A: 0.011 ± 0.23

Q: For KKRTSIEVSVKGVLETHFLKCPKPAAQEISSLADSLQLEKHVVRVWFCNRRQKEKR, which abundance fitness is on record?
A: -0.161 ± 0.21

Q: For KKRTSIEVSVKGVLETHFLKCPKPAAQEISSLADSLQLEKNVVRVWFCNRRQKEKR, which abundance fitness is on record?
A: -0.189 ± 0.29

Q: Which abundance fitness does the source give for KKRTSIEVSVKGVLETHFLKCPKPAAQEISSLADSLQLEKWVVRVWFCNRRQKEKR here?
A: -0.852 ± 0.2

Q: Which abundance fitness does the source give for KKRTSIEVSVKGVLETHFLKCPKPAAQEISSLADSLQLEKEVVRVWSCNRRQKEKR here?
A: -0.426 ± 0.15

Q: Which abundance fitness does the source give for KKRTSIEVSVKGVLETHFLKCDKPAAQEISSLADSLQLEKEVVRVWFCNRRQKEKR here?
A: -0.363 ± 0.23

Q: For KKRTSIEVSVKGVLETHFLKCPKPAACEISSLADSLQLEKEVVRVWFCNRRQKEKR, which abundance fitness is on record?
A: -0.16 ± 0.18

Q: For KKRTSIEVSVKGVLETHFLKCPKPAADEISSLADSLQLEKEVVRVWFCNRRQKEKR, which abundance fitness is on record?
A: 0.147 ± 0.19

Q: Which abundance fitness does the source give for KKRTSIEVKVKGVLETHFLKCPKPAAQEISSLADSLQLEKEVVRVWFCNRRQKEKR here?
A: 0.237 ± 0.33

Q: For KKRTSIEVLVKGVLETHFLKCPKPAAQEISSLADSLQLEKEVVRVWFCNRRQKEKR, which abundance fitness is on record?
A: -0.24 ± 0.35

Q: Which abundance fitness does the source give for KKRTSIEVAVKGVLETHFLKCPKPAAQEISSLADSLQLEKEVVRVWFCNRRQKEKR here?
A: -0.056 ± 0.19

Q: Which abundance fitness does the source give for KKRTSIEVMVKGVLETHFLKCPKPAAQEISSLADSLQLEKEVVRVWFCNRRQKEKR here?
A: -0.392 ± 0.25

Q: Which abundance fitness does the source give for KKRTSIEVSVKGVLETHFLKCPKPAAQEISSLADSLQLEKEVVRVWFCNRRQPEKR here?
A: -0.884 ± 0.25

Q: Which abundance fitness does the source give for MKRTSIEVSVKGVLETHFLKCPKPAAQEISSLADSLQLEKEVVRVWFCNRRQKEKR here?
A: -0.03 ± 0.27

Q: For KKRTSIEVSVKGVLETHFLKCPKPAAQEISSLADSLQLEKEVVRVGFCNRRQKEKR, which abundance fitness is on record?
A: -0.639 ± 0.15

Q: With KKRTSIEVSVKGVLETHFLKCPKPAAQEISSLADSLQLEKEVVRVTFCNRRQKEKR as the variant, how does the abundance fitness read?
A: -0.709 ± 0.19

Q: With KKRTSIEVSVKGVLETHFLKCPKPAAQEISSLADSEQLEKEVVRVWFCNRRQKEKR as the variant, how does the abundance fitness read?
A: -0.781 ± 0.39

Q: With KKRTSIEVSVKGVLETHFLKCPKPAAQEISSLADSLQLEIEVVRVWFCNRRQKEKR as the variant, how does the abundance fitness read?
A: -0.638 ± 0.27
